Measurements published in IntAct's records for PubMed 17462627.

B1: Emerin (Homo sapiens), P50402 (parent)
chain: MDNYADLSDTELTTLLRRYNIPHGPVVGSTRRLYEKKIFEYETQRRRLSPPSSSAASSYSFSDLNSTRGDADMYDLPKKEDALLYQSKGYNDDYYEESYFTTRTYGEPESAGPSRAVRQSVTSFPDADAFHHQVHDDDLLSSSEEECKDRERPMYGRDSAYQSITHYRPVSASRSSLDLSYYPTSSSTSFMSSSSSSSSWLTRRAIRPENRAPGAGLGQDRQVPLWGQLLLFLVFVIVLFFIYHFMQAEEGNPF

Columns and labels:
SYNE1, Q8NF91-3 = variants of: B1; conditions: with SYNE1, Q8NF91-3
SYNE2, Q8WXH0-3 = variants of: B1; conditions: with SYNE2, Q8WXH0-3
Sequence of SYNE2, Q8WXH0-3 (Q8WXH0 6031-6885): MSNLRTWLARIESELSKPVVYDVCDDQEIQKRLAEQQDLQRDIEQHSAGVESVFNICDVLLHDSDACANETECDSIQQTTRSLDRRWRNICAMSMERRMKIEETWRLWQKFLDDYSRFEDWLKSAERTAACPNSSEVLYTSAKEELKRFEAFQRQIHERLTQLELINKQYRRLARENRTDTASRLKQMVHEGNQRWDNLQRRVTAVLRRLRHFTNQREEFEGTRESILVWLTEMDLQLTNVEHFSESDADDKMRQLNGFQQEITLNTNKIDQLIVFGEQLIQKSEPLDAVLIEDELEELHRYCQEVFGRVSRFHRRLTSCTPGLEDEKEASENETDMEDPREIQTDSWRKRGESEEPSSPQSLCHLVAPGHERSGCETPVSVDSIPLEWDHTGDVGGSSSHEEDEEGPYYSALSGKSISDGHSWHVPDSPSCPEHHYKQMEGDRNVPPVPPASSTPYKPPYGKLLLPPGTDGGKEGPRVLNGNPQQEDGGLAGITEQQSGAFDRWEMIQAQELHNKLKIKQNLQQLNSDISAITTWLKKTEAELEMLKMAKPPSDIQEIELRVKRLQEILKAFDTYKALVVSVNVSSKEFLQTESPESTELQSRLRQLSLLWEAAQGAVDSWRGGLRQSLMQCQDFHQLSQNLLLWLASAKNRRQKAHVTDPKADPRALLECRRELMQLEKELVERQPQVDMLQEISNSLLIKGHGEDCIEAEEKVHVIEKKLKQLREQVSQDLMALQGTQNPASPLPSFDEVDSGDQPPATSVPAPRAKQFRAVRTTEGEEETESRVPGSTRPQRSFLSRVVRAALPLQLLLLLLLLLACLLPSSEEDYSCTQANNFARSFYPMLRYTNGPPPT

Sequence of SYNE1, Q8NF91-3 (Q8NF91 other isoform, or with tags, fused parts or gaps): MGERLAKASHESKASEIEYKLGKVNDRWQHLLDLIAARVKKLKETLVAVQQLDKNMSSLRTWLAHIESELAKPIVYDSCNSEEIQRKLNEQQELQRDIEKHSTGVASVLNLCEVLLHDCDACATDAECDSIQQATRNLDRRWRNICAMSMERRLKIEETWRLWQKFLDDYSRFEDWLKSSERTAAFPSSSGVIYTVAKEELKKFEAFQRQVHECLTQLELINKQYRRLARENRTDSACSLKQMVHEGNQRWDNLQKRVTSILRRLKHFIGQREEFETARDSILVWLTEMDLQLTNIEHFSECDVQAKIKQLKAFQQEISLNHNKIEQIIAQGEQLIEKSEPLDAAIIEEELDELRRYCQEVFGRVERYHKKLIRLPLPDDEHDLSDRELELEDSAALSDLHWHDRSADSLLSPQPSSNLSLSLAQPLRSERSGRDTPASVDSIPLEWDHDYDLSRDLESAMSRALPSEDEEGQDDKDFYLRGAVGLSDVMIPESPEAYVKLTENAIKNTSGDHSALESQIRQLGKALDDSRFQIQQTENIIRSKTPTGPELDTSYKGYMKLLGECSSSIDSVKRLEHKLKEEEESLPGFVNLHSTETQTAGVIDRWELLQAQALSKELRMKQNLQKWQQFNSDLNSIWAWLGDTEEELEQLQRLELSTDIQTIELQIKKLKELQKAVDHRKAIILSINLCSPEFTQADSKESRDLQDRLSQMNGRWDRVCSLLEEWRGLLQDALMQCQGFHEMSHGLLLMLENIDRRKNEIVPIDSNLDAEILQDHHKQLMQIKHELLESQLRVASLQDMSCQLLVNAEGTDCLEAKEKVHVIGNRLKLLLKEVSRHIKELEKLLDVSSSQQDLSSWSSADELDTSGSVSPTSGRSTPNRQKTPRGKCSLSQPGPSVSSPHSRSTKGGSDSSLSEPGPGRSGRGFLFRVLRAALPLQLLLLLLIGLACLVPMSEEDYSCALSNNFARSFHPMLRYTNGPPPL

Row | Variant | effect of a mutation on the interaction (SYNE1, Q8NF91-3) | effect of a mutation on the interaction (SYNE2, Q8WXH0-3)
1 | MDNYADLSDTELTTLLRRYNIPHGPVVGSTRRLYEKKIFEYETQRRRLSPPSSSAASSYSFSDLNSTRGDADMYDLPKKEDALLYQSKGYNDDYYEESYFTTRTYGEPESAGPSRAVRQSVTSFPDADAFHHQVHDDDLLSSSEEECKDRERPMYGRDSAYQSITHYRPVSASRSSLDLSYYTTSSSTSFMSSSSSSSSWLTRRAIRPENRAPGAGLGQDRQVPLWGQLLLFLVFVIVLFFIYHFMQAEEGNPF [P183T] | decreasing interaction strength | increasing interaction strength
2 | MDNYADLSDTELTTLLRRYNIPHGPVVGSTRRLYEKKIFEYETQRRRLSPPSSSAASSYSFSDLNSTRGDADMYDLPKKEDALLYQSKGYNDDYYEESYFTTRTYGEPESAGPSRAVRQSVTSFPDADAFHHQVHDDDLLSSSEEECKDRERPMYGRDSAYQSITHYRPVSASRSSLDLSYYHTSSSTSFMSSSSSSSSWLTRRAIRPENRAPGAGLGQDRQVPLWGQLLLFLVFVIVLFFIYHFMQAEEGNPF [P183H] | increasing interaction strength | increasing interaction strength
3 | MDNYADLSDTELTTLLRRYNIPHGPVVGSTRRLYEKKIFEYETQRRRLSPPSSSAASSYSFSDLNSTRGDADMYDLPKKEDALLYQSKGYNDDYYEESYFTTRTYGEPESAGPSRAVRQSVTSFPDADAFHHHVHDDDLLSSSEEECKDRERPMYGRDSAYQSITHYRPVSASRSSLDLSYYPTSSSTSFMSSSSSSSSWLTRRAIRPENRAPGAGLGQDRQVPLWGQLLLFLVFVIVLFFIYHFMQAEEGNPF [Q133H] | increasing interaction strength | 
